# B1: hsgk2: human serum-and-glucocorticoid-dependent kinase 2, coexpressed in oocytes by mRNA injection (protein, UniProt Q9HBY8 1-367, looked up)
# Serine/threonine-protein …: MNSSPAGTPSPQPSRANGNINLGPSANPNAQPTDFDFLKVIGKGNYGKVLLAKRKSDGAFYAVKVLQKKSILKKKEQSHIMAERSVLLKNVRHPFLVGLRYSFQTPEKLYFVLDYVNGGELFFHLQRERRFLEPRARFYAAEVASAIGYLHSLNIIYRDLKPENILLDCQGHVVLTDFGLCKEGVEPEDTTSTFCGTPEYLAPEVLRKEPYDRAVDWWCLGAVLYEMLHGLPPFYSQDVSQMYENILHQPLQIPGGRTVAACDLLQSLLHKDQRQRLGSKADFLEIKNHVFFSPINWDDLYHKRLTPPFNPNVTGPADLKHFDPEFTQEAVSKSIGCTPDTVASSSGASSAFLGFSYAPEDDDILDC
# B2: hsgk1: human serum-and-glucocorticoid-dependent kinase 1, coexpressed in oocytes by mRNA injection (protein, UniProt O00141 1-431, looked up)
# Serine/threonine-protein …: MTVKTEAAKGTLTYSRMRGMVAILIAFMKQRRMGLNDFIQKIANNSYACKHPEVQSILKISQPQEPELMNANPSPPPSPSQQINLGPSSNPHAKPSDFHFLKVIGKGSFGKVLLARHKAEEVFYAVKVLQKKAILKKKEEKHIMSERNVLLKNVKHPFLVGLHFSFQTADKLYFVLDYINGGELFYHLQRERCFLEPRARFYAAEIASALGYLHSLNIVYRDLKPENILLDSQGHIVLTDFGLCKENIEHNSTTSTFCGTPEYLAPEVLHKQPYDRTVDWWCLGAVLYEMLYGLPPFYSRNTAEMYDNILNKPLQLKPNITNSARHLLEGLLQKDRTKRLGAKDDFMEIKSHVFFSLINWDDLINKKITPPFNPNVSGPNDLRHFDPEFTEEPVPNSIGKSPDSVLVTASVKEAAEAFLGFSYAPPTDSFL
# B3: hsgk3: human serum-and-glucocorticoid-dependent kinase 3, coexpressed in oocytes by mRNA injection (protein, UniProt Q96BR1 1-496, looked up)
# Serine/threonine-protein …: MQRDHTMDYKESCPSVSIPSSDEHREKKKRFTVYKVLVSVGRSEWFVFRRYAEFDKLYNTLKKQFPAMALKIPAKRIFGDNFDPDFIKQRRAGLNEFIQNLVRYPELYNHPDVRAFLQMDSPKHQSDPSEDEDERSSQKLHSTSQNINLGPSGNPHAKPTDFDFLKVIGKGSFGKVLLAKRKLDGKFYAVKVLQKKIVLNRKEQKHIMAERNVLLKNVKHPFLVGLHYSFQTTEKLYFVLDFVNGGELFFHLQRERSFPEHRARFYAAEIASALGYLHSIKIVYRDLKPENILLDSVGHVVLTDFGLCKEGIAISDTTTTFCGTPEYLAPEVIRKQPYDNTVDWWCLGAVLYEMLYGLPPFYCRDVAEMYDNILHKPLSLRPGVSLTAWSILEELLEKDRQNRLGAKEDFLEIQNHPFFESLSWADLVQKKIPPPFNPNVAGPDDIRNFDTAFTEETVPYSVCVSSDYSIVNASVLEADDAFVGFSYAPPSEDLFL
# What was measured:
# [1] = tested on: human embryonic kidney cells (HEK-cells); experiment: Survival of HEK-cells after extraction of fetal calf serum; format: cell-based; conditions: FCS extracted, FIG. 3
# Procedure: According to FIG. 3, extracting fetal calf serum (FCS) from human embryonic kidney cells (HEK-cells) (Lewis, et al (1984); Phillips, et al (1982)) reduces the total number of cells present due to cell mortality, as may be seen by comparing the black bars to the dotted bars, where FIG. 3 depicts the situations after 24 hours and 48 hours, respectively. This reduction is lessened by the insulin-like growth factor (IGF1), represented by the white bars. The effect of IGF1 is eliminated by the simultaneous inhibition of K^+-channels using margatoxin (MT), represented by the hatched bars. […] The activation of the Kv1.3-channel mediated by sgk2 and sgk3 thus has an antiapoptotic effect, and lack of an sgk2-effect and sgk3-effect would thus cause an increase in cell mortality, as occurs in the case of, for example, neurodegeneration. Conversely, activators of sgk2 and sgk3 may be employed for preventing apoptotic cell death in the case of neurodegeneration. Since Kv1.3 also plays a major role in regulating lymphocyte proliferation and lymphocyte function, inhibitors or activators of these kinases may be employed for affecting the immune system in the case of, e.g., autoimmune diseases or immune deficiency.
# hsgk2 and hsgk3 = experiment: Kinase inhibitors on hsgk stimulation of channel activity in oocytes; format: cell-based, Xenopus laevis; conditions: protein-kinase inhibitor added; Table 1, FIGS. 1 and 2
# Procedure: (§1) Each of the oocytes involved was injected with 1 ng cRNA from α-ENaC, β-ENaC, and γ-ENaC, Kv1.3, or minK, both with and without simultaneous injection of the kinases hsgk1, hsgk2, and hsgk3. Dual-electrode voltage-clip and current-clip experiments could be undertaken 2 to 4 days following injection. Na^+-currents (in the case of ENaC) and K^+-currents (in the case of Kv1.3 and minK) were filtered at 10 Hz and recorded using a recorder. The experiments were normally conducted on the second day following cRNA-injection. The bath solution contained 96 mM NaCl, 2 mM KCl, 1.8 mM CaCl2, 1 mM MgCl2, and 5 mM HEPES at a pH of 7.5 and a holding potential of −80 mV. In all experiments, bath pH was set by titration with HCl or NaOH. Bath-liquid flow rate was set to 20 ml/min, which provided for a complete change of solution within 10 to 15 seconds. All data were output in the form of arithmetic means±SEM.
# (§2) In order to investigate the effects of hsgk1, hsgk2, or hsgk3, the mRNA of the respective kinases, together with the mRNA of the epithelial Na^+-channel, α-ENaC, β-ENaC, and γ-ENaC, or the voltage-dependent K^+-channel, Kv1.3, or the minK-channel, were injected into Xenopus oocytes and the amiloride-sensitive Na^+-current, INa, and voltage-activated K^+-current, IK, subsequently determined.
# [2] = tested on: epithelial Na^+-channel, α-ENaC, β-ENaC, and γ-ENaC (rENaC); experiment: Dual-electrode voltage clip, amiloride-sensitive Na+-current in oocytes expressing ENaC; format: cell-based, Xenopus laevis; conditions: for activation of the Na^+-channel rENaC by hsgk2 and hsgk3: kinase inhibitor; for activation of the Na^+-channel rENaC by hsgk2 and hsgk3 / amiloride-inhibitable current, Iamil, through the Na^+-channel, rENaC: FIG. 1; for amiloride-inhibitable current, Iamil, through the Na^+-channel, rENaC: coexpression with kinase; for Na^+-current (INa): oocytes injected with α-ENaC, β-ENaC, and γ-ENaC plus kinase, mean ± SEM, n=7
# Procedure: as §1, §2
# minK-channel = experiment: Dual-electrode voltage clip, K+-current in oocytes expressing minK; format: cell-based, Xenopus laevis; conditions: oocytes injected with minK plus kinase; mean ± SEM, n=7
# Procedure: as §1, §2
# [3] = tested on: voltage-dependent K^+-channel, Kv1.3; experiment: Dual-electrode voltage clip, voltage-activated K+-current in oocytes expressing Kv1.3; format: cell-based, Xenopus laevis; conditions: oocytes injected with Kv1.3 plus kinase; mean ± SEM, n=7
# Procedure: as §1, §2
molecule,measurement,setting,value
IGF1: insulin-like growth factor,reduction of total number of cells due to cell mortality,[1]; after 24 hours and 48 hours,lessened
"CN[C@@H]1C[C@H]2O[C@@](C)([C@@H]1OC)n1c3ccccc3c3c4c(c5c6ccccc6n2c5c31)C(=O)NC4 [staurosporine, reference compound]","stimulating effects of hsgk on ENaC-activity, Kv1.3-activity and minK-activity",hsgk2 and hsgk3,totally prevented
same,activation of the Na^+-channel rENaC by hsgk2 and hsgk3,[2],inhibit activation of the Na^+-channel
"margatoxin (TIINVKCTSPKQCLPPCKAQFGQSAGAKCMNGKCKCYPH; UniProt P40755 1-39, looked up) [reference compound]",effect of IGF1 on cell-number reduction,"[1]; IGF1 plus simultaneous inhibition of K^+-channels, 24 and 48 hours",eliminated
"COc1ccc2c(c[n+](C)c3c4cc5c(cc4ccc23)OCO5)c1OC [chelerythrine, reference compound]","stimulating effects of hsgk on ENaC-activity, Kv1.3-activity and minK-activity",hsgk2 and hsgk3,totally prevented
same,activation of the Na^+-channel rENaC by hsgk2 and hsgk3,[2],inhibit activation of the Na^+-channel
B1,"K^+-current (IK), MinK",minK-channel,0.97 ± 0.1 μA
same,"K^+-current (IK), Kv1.3",[3],6.5 ± 0.6 μA
same,"amiloride-inhibitable current, Iamil, through the Na^+-channel, rENaC",[2],increased significantly
same,Na^+-current (INa),[2],9.4 ± 1.7 μA
B2,"K^+-current (IK), MinK",minK-channel,1.16 ± 0.11 μA
same,"K^+-current (IK), Kv1.3",[3],8.4 ± 1.8 μA
same,Na^+-current (INa),[2],5.9 ± 1.0 μA
B3,"K^+-current (IK), MinK",minK-channel,1.1 ± 0.11 μA
same,"K^+-current (IK), Kv1.3",[3],8.2 ± 0.7 μA
same,"amiloride-inhibitable current, Iamil, through the Na^+-channel, rENaC",[2],increased significantly
same,Na^+-current (INa),[2],4.5 ± 0.8 μA
